Reference: the supplement of paper PMC11502859
“And” between values parts separate entries of the source, which are not always exact repeats. Equal entries are not always repeated.

Tested on: HEK293T
Assay: median enrichment of reporter reads in eGFP-reduced (low/intermediate) vs eGFP-high sorted cells (eGFP-extension fusion abundance) (ratio); higher = stronger loss of eGFP-fusion protein abundance (more destabilising extension)
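Note: lentiviral eGFP-IRES-mCherry reporter pool sorted by FACS 96 h post-transduction, gated on mCherry-high cells, Illumina read counts normalized per million, median across four biological replicates.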

| Substance | median enrichment |
| --- | --- |
| YPGASWLRLAPSGHLPWSDPFQMKCGDIDLFFFFFETEFHSCCPVWSAMAQSQLTATSASWVQAILLPQPPK [SPC24] | 7.7 |
| YPGGRVAAGGACAEAS [SLC7A5] | 1.04 |
| YPGSFYGHE [ZNF700] | 0.482 |
| YPHRGAGEGALDN [TMEM203] | 0.51 |
| YPILKVALFLLDLAELVAWGVGEIKRT [SPCS2] | 11.7 |
| YPLLKECEI [NCOA1] | 0.498 |
| YPLRDSRCYLSSVPHFL [SYT9] | 12 |
| YPNIIQGTEIKELRFKHKCLAQTYL [EEF1E1] | 7.38 |
| YPPAQPRTDMNIGWTEVASV [PIP4K2A] | 5.83 |
| YPPQGPAPPRPGE [WFIKKN1] | 0.52 |
| YPQPPPHHPLPKSSACSPGERTAGLSY [COTL1] | 11.5 |
| YPSL [KCNK2] | 0.357 |
| YPSLCHWVECAFRAS [ARHGEF6] | 7.57 |
| YPSQGCSSVPSRRMWQGRAGSE [SERPINA4] | 0.599 |
| YPSVLHTARGPRMPRPPLAPAGREPDHLPC [CHI3L1] | 2.05 |
| YPTVGPGWAGRSWCVTGCPGRHVLALTVPGLSLPAAAIQEIVATVTLTSSAWFLPLPSGVDKGPLIIFSFVFL [DVL2] | 7.88 |
| YPV [HNRNPUL1] | 0.542 |
| YPVGGWRVCHSNLIESRKTEGNAAAN [OR52E8] | 4 |
| YPVLEGTGGIIFNDLLN [NXPE3] | 1.65 |
| YPVTL [SMCO1] | 0.416 |
| YPVTPRDCLVQVVAAGGTHAAPRSEQTLPCRPAPAGPDGPLWRLDLLGQAALGLSAPSCLSRCDRARPKPGCTLLDWASLHCL [MLST8] | 4.58 |
| YPWALPCYPFSPLEVPNLLHPLPLL [PPRC1] | 3.39 |
| YPWPPGLASSFWVSQAPLALTPLARSPSFRSS [PPFIA4] | 16 |
| YPYGE [PRKCH] | 0.563 |
| YQAQLQKDLTCAHKILL [LCN6] | 7.65 |
| YQFCPTSLSPQPLQSSVTCCGLYSGSALATSPNISSSFSPSDLTVQ [JOSD1] | 7.58 |

| Substance | median enrichment |
| --- | --- |
| YQGPLDL [OR56A3] | 0.714 |
| YQGPSQYPWRTREIAPYRQWRGVPSHRQEPEAQAAHPFQPSRTHTDGREGGHSMNYC [XYLT2] | 1.21 |
| YQHWPSVFLGGTSQEPLPALLESQRGQEAVAGASTQLG [GDF5] | 1.15 |
| YQIYRVEGLIGEGRSSGSTQELDWKRSL [SON] | 9.11 |
| YQLFAISCTQTCVIYAPGNQ [MAST2] | 7.02 |
| YQLINLE [BRWD3] | 0.91 |
| YQNNGFL [GNL3] | 1.22 |
| YQSVL [RNASE9] | 1.04 |
| YQVAELGPLGQGAQATSSFVVTKQGSPFPFLLPYFVQRTRVIYIYICICLYPSPHLSDSALGTQLWAARGAVPCGSSCVCVPS [SCAMP5] | 8.36 |
| YQVIAEQMNRPPASVANTRSISLGQWTNT [LCP2] | 2.43 |
| YRA [SYNE2] | 0.591 |
| YRCEGIGETLGWLVMVSIAGHQKLDS [B4GALNT2] | 17.4 |
| YRDLQRPGQK [PEG10] | 12 |
| YRGPCRHHPPPSPCPQPVCPVPCPPQAWWWQWRRLRRLKRLTGRGAFCLAHCPDDPPAPSRLQQQSPRRTGWTEEKEVDCCTH [SOX10] | 3.52 |
| YRGRPGTGGMSCRPQPGRTPHSLSRQRGQNRPAQPWSPLHSPRPLAPALPTSSAWSEGAARAQQRRGGRLWPPTSRPVPAGTA [ARHGAP39] | 7.75 |
| YRHLVVFWEQKNYFLLTRLFVLKTIFLNLS [EP300] | 14 |
| YRHQVW [SMAD3] | 1.22 |
| YRKGW [C9orf131] | 0.926 |
| YRKVSVSPNPHSNEF [GPR22] | 41.8 |
| YRLFVHYCFHFVPRVKQTTEKSNQVITYPSAGDFDY [ZBBX] | 10.1 |
| YRLLSKHRFSR [Degron FEM1A/C] | 5.74 |
| YRMETQKT [USH2A] | 0.809 |
| YRNLENYTCFSEIITEYT [ABCD3] | 11.4 |
| YRNSEVQPLENNIQEGHIDYKLMSCPICNSGS [FRRS1] | 25.3 |
| YRNSNPGVPV [INPP1] | 0.415 |
| YRQK [CCR2] | 0.225 |

| Substance | median enrichment |
| --- | --- |
| YRRIYVLFKQEKVTLPMLSPLHNI [CDH10] | 8.74 |
| YRRLPRAPPHSMTRLWIPHCTSHSPLSAPSPPCWSCSHTPGTGLGHPLLPACVFLILGRPG [KRT71] | 6.31 |
| YRRQRAWCDLVGSGNGRKRSPP [BTBD9] | 6.86 |
| YRSAVQENVMLGTPSSVVLASHASAAELAE [DEFA4] | 2.45 |
| YRSRHLPQTWGGGPASSSTTLAPSLLTWVLAF [SCRIB] | 13.1 |
| YRTDVE [HEY1] | 0.613 |
| YRTGIHEQKAESQTCLS [CD5] | 0.587 |
| YRTM [IAPP] | 0.785 |
| YSASSNLVFSKKNIYYLFLACHFNSSRDFTAGIF [RBM48] | 41.8 |
| YSCVVKINMRKLPCNLNLGFPCNRN [IL23R] | 22.3 |
| YSCVVSLLEIELA [DGKB] | 7.27 |
| YSFKSNRIIFHLAVVRSN [SS18L2] | 12.1 |
| YSFTNQVP [SMAD2] | 0.532 |
| YSGLPVASSSTTELQTNHPKCRLDGEGKDWGGRVNSEGCPLPIPPGP [PODXL] | 21.5 |
| YSHPPPLGVPNVPSAVPAAAPLHPQLHHPLSHSRSCTPAFQLCPRGF [PRKCG] | 3.59 |
| YSPQAD [YAP1] | 0.413 |
| YSPTPTAAYLHFQFLRGTEASSQHAANLWSLILTPSPTPVVGLYYV [KIF5A] | 6.66 |
| YSQERWKQVTSTIA [OR5K1] | 7.21 |
| YSQILALLSG [CHRNA9] | 12.2 |
| YSQLKECEILNY [MTREX] | 1.31 |
| YSQPQLMPSQSQPPVTPSQSQPRVTPSQSQPHVTPYRSKSGKQKQSVPIPKTVSRKGTLKK [ADAM29] | 0.413 |
| YSQRGGQSQSQLLSCPLLPARALVLTPSCIPHLRSVY [SLC2A11] | 11.1 |
| YSQTNTPYVSVNPCYLSRVCYFPSHRPNPWSPRGSHTTAITQCRGHA [HIP1] | 2.78 |
| YSSSPVDEHLGWKFCSHTQDTAQDPAGVFFSVVRCTIGLMSIVLEDERKLRRTRSTDPDVIKHFVVSLSHR [BICD1] | 3.59 |
| YSTVI [C5orf15] | 0.763 |
| YSV [ILF3] | 0.744 |

| Substance | median enrichment |
| --- | --- |
| YSWANDH [SEMA4F] | 0.76 |
| YSYSVMTLVIFCVL [HTR1D] | 15.3 |
| YTAQGSPTQAPTLLLLALLPASVQRTGRYWWEALCLAPQLPVWASKHNGPSRSLVETGVVVPNLPSALPLHRTQRPQALQGVL [AMIGO3] | 8.02 |
| YTCGEGLSWTRPLPTASSLQVQLKPLSSGGRHVERAGRPTAAENRAGTGSSCSAFPSFGDAGSAAPKHLPAPHSTVSEDSSLL [CDC14B] | 0.953 |
| YTCPYSSRALNLLLTNHLLRC [KCNU1] | 11.9 |
| YTDYIGSFELTSDKGGKFRQHYDLINFIF [MSH6] | 21.1 |
| YTHMYDPYKCFKILKM [TRDN] | 11.1 |
| YTKYLKMGIILI [ST8SIA6] | 10.3 |
| YTLENMYVWLIKCFKLN [NOTCH2NLA] | 7.83 |
| YTLGKITYLSSCE [OR10G8] | 13.7 |
| YTPLCHFSGDPAFLIWK [CENPE] | 5.97 |
| YTPLFVVHYFD [KCNQ2] | 7.27 |
| YTPNNLLPPLAPVAYISS [TMEM169] | 11.3 |
| YTQKTNSIQSQ [ENDOD1] | 1.93 |
| YTSGKKIFTCAGL [DDX46] | 3.47 |
| YTSRTAT [NCOA6] | 0.753 |
| YTSVLNQDLTQKD [GTF2IRD1] | 0.784 |
| YTTMYFNKDHQC [LRP2BP] | 1.43 and 3.14 |
| YVAMVKVSVAAAAMASRRRCWDCFALEPASGCPLQWLCYCMDCILDFMCMSQ [DYNLL2] | 10.8 |
| YVCAEESKTPFRATIPQ [SLC22A25] | 1.62 |
| YVCCLPSPSGHTLLYHTTGLDSGWRQIDTV [LIG3] | 5.91 |
| YVD [GLUL] | 0.387 |
| YVDLRQTLGGVKESHRYPKE [MAGEH1] | 3.34 |
| YVEGYKC [FIBIN] | 1.05 |
| YVFLKIKLKKEIFFLIKL [GALNT3] | 6.22 |
| YVFLQCVLQARFIITYRFMISKIK [CLEC3A] | 9.75 |

| Substance | median enrichment |
| --- | --- |
| YVFVIFNCSML [CRISP1] | 8.9 |
| YVGRSPRPLPSSGDNQQ [CPNE9] | 0.56 |
| YVHGLSLYPTALLCDSLMKLVTFTSQNFG [KDM4D] | 7.32 |
| YVI [UPRT] | 1.22 |
| YVLCCIPFSFLQMTMNFKLWGQCCNIFTFSNSQNLKNVKLCLVCFS [INPP4B] | 5.86 |
| YVLCYNGVIVPKCPH [OR51F2] | 5.24 |
| YVLIGLPAGCDSKA [CBX2] | 14 |
| YVLILPSH [HSPA4L] | 10.7 |
| YVLRWNSLGEHLMSQPIQLPHNPAEGRVRGE [WDR62] | 7.76 |
| YVNV [CLEC2B] | 0.896 |
| YVPTK [ZNF334] | 0.591 |
| YVPVSPFIAAFPWGRQ [CXCR5] | 6.43 and 2.95 |
| YVRTVG [UFD1] | 3.02 |
| YVTTPRSSAFKTKRDWGSGEGEEEQEEKKYSELLQVTLIKNLL [NR5A2] | 8.46 |
| YVYLFLQEI [PI15] | 4.25 |
| YWAPSL [MSN] | 2.04 |
| YWCGK [NME7] | 2.52 |
| YWELLWQVPPE [C1orf115] | 3.92 |
| YWENPLLVHLKTPNSTIICQEIKRTTP [PCP4] | 13.6 |
| YWVFGLTGARMDLQRQL [GPR149] | 5.42 |
| YWWLVVMNSYSVASSLPASHLPSTSQLLPSLTEANIFI [NTRK3] | 23.2 |
| YYCTELP [ADAM18] | 4.78 |
| YYHMFSWYVN [ABHD10] | 17.6 |
| YYSKIKYINIYIYIYFRKKKKTNKQKNPTPVDTLIFPNEDFIYGMEWKKKQLF [BMP2] | 49 |
| YYVIRNLVAWPYLAAREPGRYVAGRLGMCPVKNSVDSLIKKKRKKDTMGTLYLVFILCMYRSSKKLHRISVTLYASGKQDWEL [CFAP61] | 41.5 |
| YYY [Tyr03] | 1.14 |
